Measurements taken from the supplement of paper PMC9112550, “Optimization of the antimicrobial peptide Bac7 by deep mutational scanning” (BMC Biology, 2022).

What follows are sequences tested on Escherichia coli TOP10 (assay: shrunken log2 fold change of peptide-encoding DNA abundance (4.5 h post-induction vs induction); higher = less antimicrobial activity (less host growth inhibition)). Details: time post-induction: 4.5 h; library: site-saturation at positions 5, 18, 19, 20.
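Further: peptides expressed intracellularly from a pBAD plasmid library in pooled LB shake-flask culture, induced with 0.3% L-arabinose, DNA abundance read by NGS, three biological replicates, DESeq2 with apeglm shrinkage.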

Row | Sequence | shrunken log2 fold change
1 | RRIRCRPPRLPRPRPRPQMFPRP | -0.155
2 | RRIRCRPPRLPRPRPRPQMNPRP | -0.416
3 | RRIRCRPPRLPRPRPRPQNLPRP | -0.49
4 | RRIRCRPPRLPRPRPRPQNQPRP | -0.00207
5 | RRIRCRPPRLPRPRPRPQPCPRP | 0.0038
6 | RRIRCRPPRLPRPRPRPQPNPRP | 0.0742
7 | RRIRCRPPRLPRPRPRPQQEPRP | -0.051
8 | RRIRCRPPRLPRPRPRPQQIPRP | -0.168
9 | RRIRCRPPRLPRPRPRPQRHPRP | -0.173
10 | RRIRCRPPRLPRPRPRPQSGPRP | -0.142
11 | RRIRCRPPRLPRPRPRPQSKPRP | -0.448
12 | RRIRCRPPRLPRPRPRPQSVPRP | -0.125
13 | RRIRCRPPRLPRPRPRPQTFPRP | -0.139
14 | RRIRCRPPRLPRPRPRPQTMPRP | -0.349
15 | RRIRCRPPRLPRPRPRPQTYPRP | -0.727
16 | RRIRCRPPRLPRPRPRPQYNPRP | -1.36
17 | RRIRCRPPRLPRPRPRPQYVPRP | -0.345
18 | RRIRCRPPRLPRPRPRPQYWPRP | -0.312
19 | RRIRCRPPRLPRPRPRPRDEPRP | 0.342
20 | RRIRCRPPRLPRPRPRPRDLPRP | 0.108
21 | RRIRCRPPRLPRPRPRPRDRPRP | 0.731
22 | RRIRCRPPRLPRPRPRPRECPRP | -0.146
23 | RRIRCRPPRLPRPRPRPREMPRP | 0.245
24 | RRIRCRPPRLPRPRPRPREQPRP | 0.312
25 | RRIRCRPPRLPRPRPRPREVPRP | 0.415

Row | Sequence | shrunken log2 fold change
26 | RRIRCRPPRLPRPRPRPRFLPRP | -0.232
27 | RRIRCRPPRLPRPRPRPRGRPRP | 0.46
28 | RRIRCRPPRLPRPRPRPRHFPRP | -0.374
29 | RRIRCRPPRLPRPRPRPRIEPRP | -0.205
30 | RRIRCRPPRLPRPRPRPRIMPRP | -0.293
31 | RRIRCRPPRLPRPRPRPRIWPRP | 0.0951
32 | RRIRCRPPRLPRPRPRPRMPPRP | 0.187
33 | RRIRCRPPRLPRPRPRPRNGPRP | 0.124
34 | RRIRCRPPRLPRPRPRPRNQPRP | -0.0402
35 | RRIRCRPPRLPRPRPRPRPDPRP | 0.276
36 | RRIRCRPPRLPRPRPRPRPNPRP | 0.478
37 | RRIRCRPPRLPRPRPRPRQTPRP | 0.781
38 | RRIRCRPPRLPRPRPRPRRCPRP | 0.42
39 | RRIRCRPPRLPRPRPRPRRWPRP | 0.646
40 | RRIRCRPPRLPRPRPRPRSIPRP | -0.0603
41 | RRIRCRPPRLPRPRPRPRSNPRP | -0.349
42 | RRIRCRPPRLPRPRPRPRTTPRP | 0.472
43 | RRIRCRPPRLPRPRPRPRWVPRP | 2.6
44 | RRIRCRPPRLPRPRPRPRYAPRP | -0.229
45 | RRIRCRPPRLPRPRPRPRYRPRP | -0.176
46 | RRIRCRPPRLPRPRPRPSAKPRP | 0.189
47 | RRIRCRPPRLPRPRPRPSCVPRP | -0.0959
48 | RRIRCRPPRLPRPRPRPSDMPRP | -0.415
49 | RRIRCRPPRLPRPRPRPSFLPRP | -0.718
50 | RRIRCRPPRLPRPRPRPSGVPRP | -0.311

Row | Sequence | shrunken log2 fold change
51 | RRIRCRPPRLPRPRPRPSHIPRP | -0.637
52 | RRIRCRPPRLPRPRPRPSIGPRP | -0.098
53 | RRIRCRPPRLPRPRPRPSINPRP | -0.86
54 | RRIRCRPPRLPRPRPRPSKCPRP | -0.266
55 | RRIRCRPPRLPRPRPRPSLEPRP | -0.136
56 | RRIRCRPPRLPRPRPRPSMCPRP | -0.14
57 | RRIRCRPPRLPRPRPRPSMFPRP | -0.651
58 | RRIRCRPPRLPRPRPRPSMTPRP | -0.178
59 | RRIRCRPPRLPRPRPRPSNKPRP | -0.44
60 | RRIRCRPPRLPRPRPRPSNSPRP | -0.644
61 | RRIRCRPPRLPRPRPRPSNTPRP | -0.417
62 | RRIRCRPPRLPRPRPRPSPGPRP | 0.0883
63 | RRIRCRPPRLPRPRPRPSPLPRP | 0.21
64 | RRIRCRPPRLPRPRPRPSPPPRP | 0.252
65 | RRIRCRPPRLPRPRPRPSQGPRP | -0.137
66 | RRIRCRPPRLPRPRPRPSQSPRP | -0.221
67 | RRIRCRPPRLPRPRPRPSRAPRP | 0.113
68 | RRIRCRPPRLPRPRPRPSTDPRP | -0.348
69 | RRIRCRPPRLPRPRPRPSTRPRP | -0.119
70 | RRIRCRPPRLPRPRPRPSVAPRP | -0.276
71 | RRIRCRPPRLPRPRPRPSWCPRP | -0.417
72 | RRIRCRPPRLPRPRPRPSWDPRP | -0.134
73 | RRIRCRPPRLPRPRPRPSWMPRP | 0.326
74 | RRIRCRPPRLPRPRPRPSYDPRP | -0.428
75 | RRIRCRPPRLPRPRPRPSYNPRP | -0.816

Row | Sequence | shrunken log2 fold change
76 | RRIRCRPPRLPRPRPRPTAMPRP | -0.113
77 | RRIRCRPPRLPRPRPRPTDKPRP | -0.243
78 | RRIRCRPPRLPRPRPRPTEFPRP | -0.0561
79 | RRIRCRPPRLPRPRPRPTGRPRP | 0.238
80 | RRIRCRPPRLPRPRPRPTHAPRP | 0.975
81 | RRIRCRPPRLPRPRPRPTHWPRP | 0.546
82 | RRIRCRPPRLPRPRPRPTKVPRP | -0.413
83 | RRIRCRPPRLPRPRPRPTKWPRP | -0.121
84 | RRIRCRPPRLPRPRPRPTLWPRP | 0.313
85 | RRIRCRPPRLPRPRPRPTMKPRP | -0.246
86 | RRIRCRPPRLPRPRPRPTMWPRP | 0.259
87 | RRIRCRPPRLPRPRPRPTNKPRP | -0.0578
88 | RRIRCRPPRLPRPRPRPTQCPRP | 0.0468
89 | RRIRCRPPRLPRPRPRPTREPRP | 0.684
90 | RRIRCRPPRLPRPRPRPTRYPRP | -0.0935
91 | RRIRCRPPRLPRPRPRPTSSPRP | -0.11
92 | RRIRCRPPRLPRPRPRPTVEPRP | 0.199
93 | RRIRCRPPRLPRPRPRPTVRPRP | 0.128
94 | RRIRCRPPRLPRPRPRPTVSPRP | 0.0953
95 | RRIRCRPPRLPRPRPRPTWEPRP | -0.0631
96 | RRIRCRPPRLPRPRPRPTWQPRP | 0.288
97 | RRIRCRPPRLPRPRPRPTWSPRP | 0.346
98 | RRIRCRPPRLPRPRPRPTYAPRP | 0.125
99 | RRIRCRPPRLPRPRPRPTYTPRP | -0.793
100 | RRIRCRPPRLPRPRPRPVAYPRP | -0.232

Row | Sequence | shrunken log2 fold change
101 | RRIRCRPPRLPRPRPRPVCTPRP | 0.0452
102 | RRIRCRPPRLPRPRPRPVCVPRP | -0.0801
103 | RRIRCRPPRLPRPRPRPVDPPRP | 0.227
104 | RRIRCRPPRLPRPRPRPVDQPRP | -0.304
105 | RRIRCRPPRLPRPRPRPVDWPRP | 1.33
106 | RRIRCRPPRLPRPRPRPVEEPRP | -0.0384
107 | RRIRCRPPRLPRPRPRPVFDPRP | -0.198
108 | RRIRCRPPRLPRPRPRPVGAPRP | 0.622
109 | RRIRCRPPRLPRPRPRPVHIPRP | -0.831
110 | RRIRCRPPRLPRPRPRPVKAPRP | 0.0593
111 | RRIRCRPPRLPRPRPRPVKQPRP | -0.222
112 | RRIRCRPPRLPRPRPRPVLTPRP | -0.191
113 | RRIRCRPPRLPRPRPRPVNTPRP | -0.259
114 | RRIRCRPPRLPRPRPRPVPLPRP | 0.00193
115 | RRIRCRPPRLPRPRPRPVQAPRP | 0.224
116 | RRIRCRPPRLPRPRPRPVQGPRP | -0.0182
117 | RRIRCRPPRLPRPRPRPVRGPRP | 0.59
118 | RRIRCRPPRLPRPRPRPVSDPRP | 0.0185
119 | RRIRCRPPRLPRPRPRPVTQPRP | -0.15
120 | RRIRCRPPRLPRPRPRPVVYPRP | -0.0321
121 | RRIRCRPPRLPRPRPRPVWLPRP | 0.0721
122 | RRIRCRPPRLPRPRPRPVWSPRP | -0.119
123 | RRIRCRPPRLPRPRPRPWDHPRP | -0.259
124 | RRIRCRPPRLPRPRPRPWFEPRP | -0.45
125 | RRIRCRPPRLPRPRPRPWFHPRP | -1.28

Row | Sequence | shrunken log2 fold change
126 | RRIRCRPPRLPRPRPRPWFTPRP | -0.879
127 | RRIRCRPPRLPRPRPRPWGFPRP | 0.248
128 | RRIRCRPPRLPRPRPRPWHAPRP | -0.271
129 | RRIRCRPPRLPRPRPRPWHGPRP | -0.244
130 | RRIRCRPPRLPRPRPRPWHPPRP | -0.0323
131 | RRIRCRPPRLPRPRPRPWICPRP | -1
132 | RRIRCRPPRLPRPRPRPWIIPRP | -0.577
133 | RRIRCRPPRLPRPRPRPWIYPRP | -0.821
134 | RRIRCRPPRLPRPRPRPWKPPRP | 0.0199
135 | RRIRCRPPRLPRPRPRPWKQPRP | -0.181
136 | RRIRCRPPRLPRPRPRPWLFPRP | -0.179
137 | RRIRCRPPRLPRPRPRPWMKPRP | -0.0192
138 | RRIRCRPPRLPRPRPRPWMMPRP | -0.0394
139 | RRIRCRPPRLPRPRPRPWMQPRP | -0.0437
140 | RRIRCRPPRLPRPRPRPWMSPRP | -0.824
141 | RRIRCRPPRLPRPRPRPWMYPRP | -0.0169
142 | RRIRCRPPRLPRPRPRPWNMPRP | -0.316
143 | RRIRCRPPRLPRPRPRPWPDPRP | 0.0862
144 | RRIRCRPPRLPRPRPRPWPFPRP | -0.121
145 | RRIRCRPPRLPRPRPRPWPHPRP | -0.0205
146 | RRIRCRPPRLPRPRPRPWPMPRP | 0.168
147 | RRIRCRPPRLPRPRPRPWQAPRP | 0.204
148 | RRIRCRPPRLPRPRPRPWREPRP | 0.13
149 | RRIRCRPPRLPRPRPRPWSNPRP | 0.00372
150 | RRIRCRPPRLPRPRPRPWTEPRP | -0.755
